# Where a SMILES comes first, the peptide text is derived from it. Where no end group is shown, it is not given here.
# T1: CCKAR (Rattus norvegicus, UniProt P30551)
# T1 construct: expressed in transfected cells; host or cells: CHO cells
# T1 sequence (P30551 1-444): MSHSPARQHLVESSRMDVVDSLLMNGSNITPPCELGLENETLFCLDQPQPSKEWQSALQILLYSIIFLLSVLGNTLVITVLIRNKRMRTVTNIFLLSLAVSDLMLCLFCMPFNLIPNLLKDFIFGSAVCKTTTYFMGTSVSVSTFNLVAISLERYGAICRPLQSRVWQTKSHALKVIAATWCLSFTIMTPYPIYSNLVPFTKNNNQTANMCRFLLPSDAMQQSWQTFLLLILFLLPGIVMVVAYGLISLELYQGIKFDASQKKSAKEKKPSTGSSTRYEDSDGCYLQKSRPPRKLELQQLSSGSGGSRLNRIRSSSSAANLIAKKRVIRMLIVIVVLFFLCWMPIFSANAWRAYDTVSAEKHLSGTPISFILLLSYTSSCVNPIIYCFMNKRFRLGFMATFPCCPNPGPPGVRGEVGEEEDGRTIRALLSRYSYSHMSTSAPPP
# T2: rat cholecystokinin receptor type A (CCKAR) (rat, UniProt P30551 1-444)
# T2 construct: whole, on cells; also called cholecystokinin type A receptor
# T2 sequence (looked up): T1 sequence (P30551 1-444)
# B1: F-2-8 (peptide)
# peptide: LLFVITLPFWAVDAVANWYFGNKK
# B2: CCKAR-TM-1-6 (peptide)
# peptide: DDEWQSALQILLYSIIFLLSVLGNTLVITV
# notes: Synthetic peptide from the first transmembrane domain of rat CCKAR
# B3: F-6-1 (peptide)
# peptide: VILILAFFACWLPYYIGISID
# B4: CCKAR-TM-5-3 (#45) (peptide)
# peptide: DDQTFLLLILFLLPGIVMVVAYGL
# B5: CCKAR-TM-4-2 (#71) (peptide)
# peptide: VIAATWCLSFTIMTPYPIYSNLVPFTDD
# B6: CCKAR-TM-2-1 (peptide)
# peptide: FLLSLAVSDLMLCLFCMPFNLP
# notes: also called CCKAR-2-1; CCKAR-TN-2-1
# B7: F-7-1 (peptide)
# peptide: ALAFFHCCLNPILYAFLGAK-NH2
# modifications: cysteine pairing not given here
# B8: F-2-5 (peptide)
# peptide: LLFVITLPFWAVDAVANDD
# B9: F-2-1 (peptide)
# peptide: LLFVITLPFWAVDAVANWYFGN
# B10: CCKAR-TM-6-4 (#77) (peptide)
# peptide: IVVLFFLCWMPIFSANAWRAYDTVDD
# What was measured:
# CCKAR = biological target: T1, CCKAR; assay: Inhibition of CCK-8-induced intracellular calcium release in CHO cells stably transfected with rat CCKAR; assay type: cell-based
# Description: The activity of peptides from the CCKAR transmembrane domain were tested in transfected CHO cells that stably express rat CCKAR (Tarasova et al. (1997), J. Biol. Chem. 272: 14817–14824). Sulfated cholecystokinin octapeptide was the CCKAR agonist. Determination of intracellular calcium release was performed as described in example 1 above.
# (§1) None of CCKAR-derived peptides served as antagonists of chemokine receptors and none could inhibit HIV-1 infection. The activity of the antagonists in inhibiting signaling through the receptor was compared to the ability to prevent agonist binding (Table 4). Inhibition of signaling was assessed in CCK-8 evoked intracellular calcium release in FURA-2/AM treated CHO cells stably transfected with rat CCKAR (Tarasova, et al. (1997) J. Biol. Chem. 272:14817). Inhibition of ligand binding was measured with the use of a fluorescent agonist, rhodamine green CCK-8 (RG-CCK-8) and quantitative confocal laser scanning microscopy (Tarasova, et al. (1997) J. Biol. Chem. 272:14817). Peptides derived from the first, second, and sixth transmembrane domains inhibited CCK-induced signaling through the CCKAR receptor.
# CXCR4 receptor [1] = biological target: CXCR4 receptor (Homo sapiens, UniProt P61073); assay: Inhibition of SDF-1α-induced intracellular calcium release (Fura-2/AM) in HeLa and U87 cells; assay type: cell-based
# CXCR4 receptor (Homo sapiens, UniProt P61073), sequence (P61073 whole entry): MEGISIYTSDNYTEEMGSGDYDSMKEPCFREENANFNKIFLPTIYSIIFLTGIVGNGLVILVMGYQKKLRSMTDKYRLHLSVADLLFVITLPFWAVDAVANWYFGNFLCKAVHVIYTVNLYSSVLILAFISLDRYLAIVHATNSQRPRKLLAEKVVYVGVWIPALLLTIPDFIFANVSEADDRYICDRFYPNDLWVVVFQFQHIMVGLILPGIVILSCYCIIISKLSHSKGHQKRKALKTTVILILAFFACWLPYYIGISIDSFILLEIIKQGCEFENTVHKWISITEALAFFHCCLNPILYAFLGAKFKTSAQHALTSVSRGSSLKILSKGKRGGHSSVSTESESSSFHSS
# Description: The effect of the peptides on CXCR4-mediated calcium fluxes in HeLa cells that naturally express the CXCR4 receptor and U87 cells stably expressing the CXCR4 receptor was tested as follows. Cells grown on Nunc cover glass chamber slides were incubated with 1 micromolar Fura-2/AM for 20 min in a CO2-incubator, rinsed with PBS and mounted on the stage of a Zeiss Axiovert inverted microscope. [Ca^2+]i measurements were performed using an Attofluor digital imaging system (Atto Instruments, Rockville, Md.). Fluorescence of Fura was excited at alternating wavelength of 340 and 380 nm. […] Calibrations of [Ca^2+]i signals were performed using Ca^2+ standards containing 1 micromolar Fura. CXCR4 antagonists were tested on HeLa cells and U87 cells. Stromal cell-derived factor-1α (SDF-1α) was used as a specific CXCR4 agonist. CCR5 antagonists, which were used in selectivity studies as described below, were tested on HEK (human kidney […]) cells stably expressing the CCR5 receptor and RANTES was used as an agonist. The antagonist activity of the peptides was evaluated by measuring the inhibition of agonist-evoked intracellular Ca^2+i release. These measurements were carried out in Fura-2/AM-treated cells, utilizing an Attofluor digital imaging system as described above. The agonist was SDF-1 α.
# LAV strain of HIV-1 = assay: Anti-HIV-1 assay, CEM-SS cells infected with LAV strain, p24 ELISA; assay type: cell-based; settings: FIG. 1
# Description: The ability of synthetic CXCR4-derived peptides of Table 1 to inhibit HIV-1 infection of CEM-SS cells was tested using an LAV strain of the virus that is known to utilize CXCR4 as a co-receptor. Anti-HIV-1 assay. Buckheit et al. (1993) Antiviral Research 21: 247. The CEM-SS cells were maintained in RPMI 1640 medium containing 10% fetal bovine serum. The cells were placed in each well of a 96-well microtiter plate to a density of 5×10^3 cells per well. The cells were infected with HIV-1 virus at a multiplicity of infection (MOI) previously determined to produce maximal level of viral production at 6 days post infection (MOI of 0.01).
# Serial half-log dilutions of test compound were added to appropriate wells in triplicate to evaluate their ability to inhibit HIV-1 infection. AZT was used in parallel as a positive control. Following 6 days of incubation at 37° C., the presence and relative abundance of viral p24 protein was determined by ELISA in cell-free supernatants derived from each well of the microtiter plate. The p24 ELISA kit was purchased from the AIDS Vaccine Program, NCI, FCRDC (Frederick, Md.) and the assay was performed according to the manufacturer's instructions.
# CCR5 receptor = biological target: T3, CCR5 receptor (Homo sapiens, UniProt P51681); assay: Inhibition of agonist (RANTES)-evoked intracellular calcium release through CCR5; assay type: cell-based; settings: U87 cells as printed
# T3 construct: expressed in transfected cells
# T3 sequence (P51681 whole entry): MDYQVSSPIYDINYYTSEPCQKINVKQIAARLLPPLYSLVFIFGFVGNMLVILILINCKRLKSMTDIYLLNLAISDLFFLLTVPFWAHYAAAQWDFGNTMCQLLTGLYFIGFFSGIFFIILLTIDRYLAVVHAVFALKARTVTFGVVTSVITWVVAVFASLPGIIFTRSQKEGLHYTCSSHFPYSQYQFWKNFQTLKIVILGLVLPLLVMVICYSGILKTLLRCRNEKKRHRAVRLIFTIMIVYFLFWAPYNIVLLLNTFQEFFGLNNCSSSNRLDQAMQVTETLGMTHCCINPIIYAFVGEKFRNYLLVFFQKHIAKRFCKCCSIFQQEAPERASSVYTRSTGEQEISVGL
# Description: CCR5 antagonists, which were used in selectivity studies as described below, were tested on HEK (human kidney […]) cells stably expressing the CCR5 receptor and RANTES was used as an agonist. The antagonist activity of the peptides was evaluated by measuring the inhibition of agonist-evoked intracellular Ca^2+i release. These measurements were carried out in Fura-2/AM-treated cells, utilizing an Attofluor digital imaging system as described above. The agonist was SDF-1 α.
# CXCR4 receptor [2] = biological target: T4, CXCR4 receptor (UniProt P61073 1-352, limits assumed); assay: cell-based or functional assay
# T4 sequence (P61073 whole entry): as the sequence (P61073 whole entry) above
# CXCR4 receptor [3] = biological target: T4, CXCR4 receptor; assay: cell-based or functional assay; remark: listed apart in the source
# [4] = biological target: T2, rat cholecystokinin receptor type A …; assay: inhibition of binding of fluorescent agonist RG-CCK-8 to CHO cells expressing rat CCKAR, quantitative confocal laser scanning microscopy
# Description: as §1, with “*J.” for “J.”, “Chem.*” for “Chem.”, “receptor. […] A peptide derived from the sixth domain, CCKAR-6-1, was active in inhibition of signaling, but had very low activity in inhibition of RG-CCK-8 binding.” for “receptor.”
# [5] = biological target: T2, rat cholecystokinin receptor type A …; assay: cell-based or functional assay
# CXCR4 receptor [6] = biological target: T4, CXCR4 receptor; assay: cell-based or functional assay; remark: listed apart in the source
# CXCR4 receptor [7] = biological target: T4, CXCR4 receptor; assay: cell-based or functional assay; remark: listed apart in the source
molecule,measurement,setting,value
CSCC[C@H](NC(=O)[C@H](CC(C)C)NC(=O)[C@H](CC(=O)O)NC(=O)[C@H](CO)NC(=O)[C@@H](NC(=O)[C@H](C)NC(=O)[C@H](CC(C)C)NC(=O)[C@H](CO)NC(=O)[C@H](CC(C)C)NC(=O)[C@H](CC(C)C)NC(=O)[C@@H](N)Cc1ccccc1)C(C)C)C(=O)N[C@@H](CC(C)C)C(=O)N[C@@H](CS)C(=O)N[C@@H](CC(C)C)C(=O)N[C@@H](Cc1ccccc1)C(=O)N[C@@H](CS)C(=O)N[C@@H](CCSC)C(=O)N1CCC[C@H]1C(=O)N[C@@H](Cc1ccccc1)C(=O)N[C@@H](CC(N)=O)C(=O)N[C@@H](CC(C)C)C(=O)N1CCC[C@H]1C(=O)O [CCKAR-TM-2-1] (H-FLLSLAVSDLMLCLFCMPFNLP-OH),"Concentration, required for inhibition of signaling",CCKAR; CCK-8-induced intracellular calcium release,2 µM
same,Potency in inhibition of ligand signaling compared with binding,CCKAR; signaling versus RG-CCK-8 binding,comparable potencies
CC[C@H](C)[C@H](NC(=O)[C@@H](NC(=O)[C@H](Cc1ccccc1)NC(=O)[C@H](CC(C)C)NC(=O)[C@@H](N)CC(C)C)C(C)C)C(=O)N[C@H](C(=O)N[C@@H](CC(C)C)C(=O)N1CCC[C@H]1C(=O)N[C@@H](Cc1ccccc1)C(=O)N[C@@H](Cc1c[nH]c2ccccc12)C(=O)N[C@@H](C)C(=O)N[C@H](C(=O)N[C@@H](CC(=O)O)C(=O)N[C@@H](C)C(=O)N[C@H](C(=O)N[C@@H](C)C(=O)N[C@@H](CC(N)=O)C(=O)N[C@@H](Cc1c[nH]c2ccccc12)C(=O)N[C@@H](Cc1ccc(O)cc1)C(=O)N[C@@H](Cc1ccccc1)C(=O)NCC(=O)N[C@@H](CC(N)=O)C(=O)N[C@@H](CC(=O)O)C(=O)N[C@@H](CC(=O)O)C(=O)O)C(C)C)C(C)C)[C@@H](C)O [Peptide F-2-2] (H-LLFVITLPFWAVDAVANWYFGNDD-OH; N-terminus and C-terminus assumed),Concentration at which signal transduction was completely blocked,CXCR4 receptor [1],0.2 µM
same,"Concentration, required for inhibition of signal transduction","CXCR4 receptor [1]; SDF-1α-induced intracellular calcium release, Table 2",0.2 µM
same,"Concentration, required for complete inhibition of [Ca^2+I] release","CXCR4 receptor [1]; TM2-derived peptides, Table 3",0.2 µM
same,Concentration that completely inhibited infection,LAV strain of HIV-1,5 µM
LFFL LTVPFWAHYAAAQWDFGDD (LFFLLTVPFWAHYAAAQWDFGDD; CCR5-TM-2-2 GPCR CCR5),"Antagonist activity on CXCR4 signaling, in words",CXCR4 receptor [1],no effect
same,Concentration at which agonist induced signaling of the receptor was completely abolished,CCR5 receptor,500 nM
B1,"Concentration, required for complete inhibition of [Ca^2+I] release",CXCR4 receptor [2],20 µM
same,antagonist activity relative to F-2-2,CXCR4 receptor [3],100 fold
B2,IC50,[4],20 µM
same,"Concentration, required for inhibition of signaling (CCK-8-induced intracellular calcium release)",[5],50 µM
B3,"Concentration, required for complete inhibition of [Ca^2+I] release (SDF-1α-induced)",CXCR4 receptor [6],10 µM
same,"Concentration, required for inhibition of signal transduction (µM) (SDF-1α-induced intracellular calcium release)",CXCR4 receptor [7],10 µM
same,"EC50 in anti-HIV-1 assay (µM) (cytoprotection, CEM-SS cells infected with HIV-1RF)",CXCR4 receptor [7],> 50 µM
B4,"Concentration, required for inhibition of signaling (CCK-8-induced intracellular calcium release)",[5],> 50 µM
B5,"Concentration, required for inhibition of signaling (CCK-8-induced intracellular calcium release)",[5],> 50 µM
B6,IC50,[4],0.5 µM
same,"Concentration, required for inhibition of signaling (CCK-8-induced intracellular calcium release)",[5],2 µM
B7,"Concentration, required for complete inhibition of [Ca^2+I] release (SDF-1α-induced)",CXCR4 receptor [6],> 100 µM
B8,"Concentration, required for complete inhibition of [Ca^2+I] release",CXCR4 receptor [2],10 µM
same,potency relative to F-2-2,CXCR4 receptor [3],20 fold
B9,"Concentration, required for complete inhibition of [Ca^2+I] release (SDF-1α-induced)",CXCR4 receptor [6],5 µM
same,"Concentration, required for complete inhibition of [Ca^2+I] release",CXCR4 receptor [2],5 µM
same,antagonist potency relative to F-2-2,CXCR4 receptor [3],> 10 fold
B10,IC50,[4],> 50 µM
same,"Concentration, required for inhibition of signaling (CCK-8-induced intracellular calcium release)",[5],5 µM
